Data published in patent US20200181258A1.

Target: canine FcRn-β2M complex (canine)
Assay: SPR, antibody captured on Protein L, soluble FcRn 920 and 460 nM, pH 6.0, 25 C

Kd: 150 nM
Substance: YTE-b12 canine IgGB (antibody)
